According to US11155602B2, “Polypeptides targeting HIV fusion” (priority 2015, dated 2021):

System: NL-Rluc virus
Test: Combinectin potency assay: antiviral EC50, NL-Rluc virus in MT-2 cells, luciferase readout
Assay type: cell-based, HIV-1
Settings: Anti-CD4 Adnectin, Table 2
Protocol: MT-2 cells, HEK 293T cells and the proviral DNA clone of […] were obtained from the NIH AIDS Research and Reference Reagent Program. MT-2 cells were propagated in RPMI 1640 medium supplemented with 10% heat-inactivated fetal bovine serum (FBS), 10 mM HEPES buffer pH 7.55, and 2 mM L-glutamine. HEK 293T cells were propagated in DMEM media supplemented with 10% heat-inactivated FBS, 10 mM HEPES buffer pH 7.55 and 2 mM L-glutamine. Recombinant NL-Rluc virus, in which a section of the nef gene from the proviral clone of NL4-3 was replaced with the Renilla luciferase gene, was constructed at Bristol-Myers Squibb. The replication-competent virus was harvested 3 days after transfection of HEK 293T cells with the modified pNL-Rluc proviral clone. Transfections were performed using Lipofectamine Plus (Invitrogen, Carlsbad, Calif.), according to manufacturer's instruction. Virus was titered in MT-2 cells using luciferase enzyme activity as a biomarker. The NL-Rluc virus used to infect MT-2 cells a multiplicity of 0.01 for 1 hour before adding to the peptides in 96-well plates. Peptides were serially diluted three-fold and 11 concentrations were plated in triplicate. After 4-5 days of incubation, cells were processed and quantitated for virus growth by the amount of expressed luciferase. Luciferase was quantitated using the Dual Luciferase kit from Promega (Madison, Wis.), with modifications to the manufacturer's protocol. The diluted Passive Lysis solution was pre-mixed with the re-suspended Luciferase Assay Reagent and then re-suspended in STOP & GLO® Substrate (2:1:1 ratio). A total of […] of the mixture was added to each aspirated well on assay plates and luciferase activity was measured immediately on a Wallac TriLux (Perkin-Elmer, Waltham, Mass.). The 50% effective concentration (EC50) was calculated by comparing the amount of luciferase produced in the presence of inhibitory peptide compared to wells where no peptide was added.

Molecule | EC50 [nM]
96 (protein, Adnectin) MGVSDVPRDLEVVAATPTSLLISWDAPAVTVQSYHIQYWPLGSYQRYQVFSVPGSKSTATISGLKPGVEYQIRVYAETGGADSDQSMGWIQIGYRTEGDKPSQHHHHHH | 7.8
97 (protein, Adnectin) MGVSDVPRDLEVVAATPTSLLISWDAPAVTVHSYHIQYWPLGWYQRYQVFSVPGSKSTATISGLKPGVEYQIRVYAETRSGLADESFGWIQIGYRTEGDKPSQHHHHHH | 11
98 (protein, Adnectin) MGVSDVPRDLEVVAATPTSLLISWDAPAVTVHSYHIQYWPLGSYQRYQVFSVPGSKSTATISGLKPGVEYQIRVYAETGGADSDQSMGWIQIGYRTEGDKPSQHHHHHH | 4.9
99 (protein, Adnectin) MGHHHHHHGGVSDVPRDLEVVAATPTSLLISWDAPAVTVHSYHIQYWPLGSYQRYQVFSVPGSKSTATISGLKPGVEYQIRVYAETGGADSDQSFGWIQIGYRTPES | 8.5
100 (protein, Adnectin) MASTSGSSSYLMPSDLEVVAATPTSLYIHWYPIASTIINFRITYGETGGNSPVQEFTVPGSQVHATISGLKPGVDYTITVYAVHYEHKYSELWMGHPISINYRTEGSGSHHHHHH | 6
101 (protein, Adnectin) MASTSGSASYLIPSDLEVVAATPTSLSIYWYPVASTIINFRITYVETGGNSPVQEFTVPGSKSTATISGLKPGVDYTITVYAVHYEQKYSEYWIGHPISINYRTEGSGSHHHHHH | > 400
102 (protein, Adnectin) MASTSGSSPYLMPYDLEVVAATPTSLFIRWYGSASSIVKFRITYGETGGNSPVQEFTVGGTQLHATISGLKPGVDYTITVYAVHFEHKYSELWIGHPISINYRTEGSGSHHHHHH | > 5500
103 (protein, Adnectin) MASTSGYTSYPIPYDLEVVAATPTSLYIHWYWIAATIISFRITYGETGGNSPVQEFTVPAGQDHATISGLKPGVDYTITVYAVHYEEEYSEFWTGHPISINYRTEGSGSHHHHHH | 255
104 (protein, Adnectin) MASTSGTHWFYSIPHDLEVVAATPTSLTIAWEPPHHTAMGYRITYGETGGNSPVQEFTVPGGYTTAYISGLKPGVDYTITVYAAYYEREYSEHWISHPISINYRTEGSGSHHHHHH | 500
105 (protein, Adnectin) MASTSGEFYHTKYPYDLEVVAATPTSLEISWRSPTRDWQWFRITYGETGGNSPVQEFTVAGPYRNAIISGLKPGVDYTITVYADVYMPSEGGLVVDTYHPISINYRTEGSGSHHHHHH | 300
106 (protein, Adnectin) MASTSGQAYPEYYFVDLEVVAATPTSLLISWSKPYYNAYSYRITYGETGGNSPVQEFTVLGHDTRAVISGLKPGVDYTITVYAMFIEYIDQEIWHAHPISINYRTEGSGSHHHHHH | 2400
107 (protein, Adnectin) MGVSDVPRDLEVVAATPTSLLISWDEHTDIYRYYRITYGETGGNSPVQEFTVPAMEHTATISGLKPGVDYTITVYAVTHVYPIMIHQYPISINYRTEIDKPSQHHHHHH | 500
108 (protein, Adnectin) MASTSGVSDVPRDLEVVAATPTSLLISWDAPAVTVLEYQIDYHPAAVWHALQRFTVPGSKSTATISGLKPGVHYKISVTATTHADNESIMWHPISIYYRTEGSGSHHHHHH | 170
